Data taken from publication PMC8934182.

How the values were obtained:
SARS-CoV-2 spike S1 = SARS-CoV-2 spike S1 (SARS-CoV-2, UniProt P0DTC2 13-685); test: 5.0 ng/mL in EIS
[1] = biological target: SARS-CoV nucleocapsid (N) protein (SARS-CoV, UniProt P59595 1-422); test: competition
Interferon-gamma (IFN-γ) = Interferon-gamma (IFN-γ) (UniProt P01579 24-161); test: competition

Measured: binding result

Sequence of Interferon-gamma (IFN-γ) (P01579 24-161): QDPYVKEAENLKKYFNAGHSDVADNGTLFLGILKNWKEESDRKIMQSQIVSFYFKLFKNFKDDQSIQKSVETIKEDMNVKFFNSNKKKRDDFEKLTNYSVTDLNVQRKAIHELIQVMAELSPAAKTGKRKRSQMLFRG
Sequence of SARS-CoV nucleocapsid (N) protein (P59595 whole entry): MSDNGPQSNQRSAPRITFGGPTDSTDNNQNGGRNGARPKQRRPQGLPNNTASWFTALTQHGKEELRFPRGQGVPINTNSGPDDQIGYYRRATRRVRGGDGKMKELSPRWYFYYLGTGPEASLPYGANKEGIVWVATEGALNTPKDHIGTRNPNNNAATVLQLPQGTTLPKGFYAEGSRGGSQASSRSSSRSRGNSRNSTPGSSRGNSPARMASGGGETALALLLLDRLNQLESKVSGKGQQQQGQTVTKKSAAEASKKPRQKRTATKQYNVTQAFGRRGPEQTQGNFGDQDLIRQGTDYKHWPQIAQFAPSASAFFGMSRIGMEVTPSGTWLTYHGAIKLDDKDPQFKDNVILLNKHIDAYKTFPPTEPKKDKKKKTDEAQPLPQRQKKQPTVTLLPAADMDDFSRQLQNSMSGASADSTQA

B1: N48 aptamer (ssDNA)
DNA: GCTGGATGTCGCTTACGACAATATTCCTTAGGGGCACCGCTACATTGACACATCCAGC
no binding: SARS-CoV-2 spike S1 | [1] | Interferon-gamma (IFN-γ)
